Test results published in publication PMC3438978.
Where two headings read alike, the source gives them in different places.

Columns and labels:
Assay in all cases: SPR
[1] = biological target: derCD23 (monomeric CD23 protein) (human) (UniProt P06734)
[2] = biological target: derCD23 (monomeric CD23 protein) (human) (UniProt P06734); remark: listed apart in the source
[3] = biological target: Recombinant human IgE-Fc (composed of domains Cϵ2-Cϵ4) (human)
[4] = biological target: Recombinant human IgE-Fc (composed of domains Cϵ2-Cϵ4) (human); remark: listed apart in the source

Sequence of UniProt P06734 (P06734 156-298): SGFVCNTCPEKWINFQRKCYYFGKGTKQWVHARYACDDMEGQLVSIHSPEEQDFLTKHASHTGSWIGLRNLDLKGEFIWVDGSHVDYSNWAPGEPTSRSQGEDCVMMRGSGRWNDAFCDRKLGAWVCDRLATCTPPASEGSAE

| Substance | Kd [1] | Kd [3] | other results |
| --- | --- | --- | --- |
| derCD23 E257A (from UniProt P06734 1-321) (domain or fragment) |  | 26.7 µM |  |
| derCD23 D227A (from UniProt P06734 1-321) (domain or fragment) |  | 30.9 µM |  |
| derCD23 (monomeric CD23 protein) (from UniProt P06734 156-298) (domain or fragment) |  | 2.3 µM | Kd [4]: 2.3 µM |
| IgE-Fc E412A (domain or fragment) | 24.2 µM |  |  |
| derCD23 K276A (from UniProt P06734 1-321) (domain or fragment) |  | 10.9 µM |  |
| IgE-Fc R351A (domain or fragment) | 2.6 µM |  |  |
| derCD23 D236A (from UniProt P06734 1-321) (domain or fragment) |  | 5.8 µM |  |
| derCD23 D192A (from UniProt P06734 1-321) (domain or fragment) |  | 4.3 µM |  |
| IgE-Fc R376A (domain or fragment) | 19.7 µM |  |  |
| IgE-Fc K380A (domain or fragment) | 13.3 µM |  |  |
| IgE-Fc D409A (domain or fragment) | 26.3 µM |  |  |

More lines, main results first:

| Kd [1] | Kd [3] | Substance | other results |
| --- | --- | --- | --- |
| 2.3 µM |  | Recombinant human IgE-Fc (composed of domains Cϵ2-Cϵ4) (domain or fragment) | Kd [2]: 2.4 µM |
| 5 µM |  | IgE-Fc K435A (domain or fragment) |  |
| 2.5 µM |  | IgE-Fc P439A (domain or fragment) |  |
|  | 26.2 µM | derCD23 R224A (from UniProt P06734 1-321) (domain or fragment) |  |
| 2.5 µM |  | IgE-Fc Q535A (domain or fragment) |  |
|  | 15.6 µM | derCD23 Y189A (from UniProt P06734 1-321) (domain or fragment) |  |
| 3.8 µM |  | IgE-Fc K352A (domain or fragment) |  |
|  | 2.5 µM | derCD23 E265A (domain or fragment) |  |
| 2.5 µM |  | IgE-Fc D347A (domain or fragment) |  |
|  | 25 µM | derCD23 R188A (from UniProt P06734 1-321) (domain or fragment) |  |
|  | 6.6 µM | derCD23 L226A (from UniProt P06734 1-321) (domain or fragment) |  |
| 2.4 µM |  | IgE-Fc Q538A (domain or fragment) |  |
